Measured values: publication PMC4620370 (Journal of Gynecologic Oncology, 2015)
Values belong to the substance of their own block, whether it stands above or below them. No end group written: not given here. *: point of attachment. FITC = O=C1OC2(c3ccc(O)cc3Oc3cc(O)ccc32)c2ccc(NC(=S)*)cc21; Ahx = NCCCCCC(=O)O

Columns and labels:
[1] = system: VEGFR-3 in ovarian carcinoma tissue sections; parameters: species or system human; conditions: FITC-tagged peptide, overnight at 4℃, confocal laser scanning fluorescence microscopy; Fig. 5B, D
[2] = system: SKOV3 ovarian cancer cells (tumor-bearing mice); experiment: In vivo targeting of 99mTc-labeled peptide to ovarian tumors; parameters: species or system Balb/c-nu mice; conditions: ~3,700 kBq ^99mTc/100 µg peptide, n=6
[3] = cited from earlier work
[4] = system: rhVEGFR-3; experiment: Phage screening; format: binding, human; conditions: negative peptide used as immunofluorescence control

Substance: FITC-(aminohexanoic, AHX)-WHWLPNLRHYAS [FITC-tagged peptide III]
- interaction with VEGFR-3 (immunofluorescence) [1]: could interact with VEGFR-3

Substance: NHS-MAG3-SHSWHWLPNLRHYAS [^99mTc-labeled peptide]
- time of peak radioactivity from ovarian tumor cells after tail vein injection [2]: 3 h

Substance: bevacizumab: a monoclonal antibody specific for VEGF
- serious adverse events associated [3]: venous thromboembolism, hypertension, proteinuria, arterial thrombosis, bleeding, and gastrointestinal perforation
- risk of fatal adverse events ([3]; meta-analysis that included 34 trials): increased

- binding in the phage screening procedure [4]: negative binding
Substance: {FITC-Ahx}-WHNSLKANYTWG [FITC-labeled negative peptide]
